According to article PMC10397247:
Read-outs that look alike come from different tables or passages of the source.

What was measured:
Core_NNNN-es_KEEE = target: T1, Core_NNNN-es_KEEE; experiment: two-hybrid library CCmax; settings: mean of both orientations;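 further: natural log of median RNA to DNA barcode read ratio; higher means stronger binding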
T1 chain: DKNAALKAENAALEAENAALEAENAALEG

O1-bP = target: T2, O1-bP; experiment: two-hybrid library CCNG1;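 further: natural log of median RNA to DNA barcode read ratio; higher means stronger binding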
T2 chain: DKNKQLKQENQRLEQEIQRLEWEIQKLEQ

O10-bP = target: T3, O10-bP; experiment: two-hybrid library CCNG1;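 further: natural log of median RNA to DNA barcode read ratio; higher means stronger binding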
T3 chain: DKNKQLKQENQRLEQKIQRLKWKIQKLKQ

O11-bP = target: T4, O11-bP; experiment: two-hybrid library CCNG1;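 further: natural log of median RNA to DNA barcode read ratio; higher means stronger binding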
T4 chain: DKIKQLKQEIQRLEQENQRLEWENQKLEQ

O12-bP = target: T5, O12-bP; experiment: two-hybrid library CCNG1
T5 chain: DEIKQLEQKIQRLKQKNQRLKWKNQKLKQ

O13-bP = target: T6, O13-bP; experiment: two-hybrid library CCNG1
T6 chain: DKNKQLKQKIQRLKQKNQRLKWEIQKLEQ

O14-bP = target: T7, O14-bP; experiment: two-hybrid library CCNG1
T7 chain: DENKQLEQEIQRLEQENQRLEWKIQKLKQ

O15-bP = target: T8, O15-bP; experiment: two-hybrid library CCNG1
T8 chain: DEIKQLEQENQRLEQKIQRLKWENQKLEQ

O16-bP = target: T9, O16-bP; experiment: two-hybrid library CCNG1
T9 chain: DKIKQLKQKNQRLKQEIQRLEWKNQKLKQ

O2-bP = target: T10, O2-bP; experiment: two-hybrid library CCNG1
T10 chain: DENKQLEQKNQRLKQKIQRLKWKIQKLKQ

O3-bP = target: T11, O3-bP; experiment: two-hybrid library CCNG1
T11 chain: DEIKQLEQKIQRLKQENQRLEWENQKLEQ

O4-bP = target: T12, O4-bP; experiment: two-hybrid library CCNG1
T12 chain: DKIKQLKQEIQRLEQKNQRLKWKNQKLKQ

O5-bP = target: T13, O5-bP; experiment: two-hybrid library CCNG1
T13 chain: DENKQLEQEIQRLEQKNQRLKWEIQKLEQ

O6-bP = target: T14, O6-bP; experiment: two-hybrid library CCNG1
T14 chain: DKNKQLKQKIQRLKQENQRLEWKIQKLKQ

O7-bP = target: T15, O7-bP; experiment: two-hybrid library CCNG1
T15 chain: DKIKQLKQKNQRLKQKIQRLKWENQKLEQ

O8-bP = target: T16, O8-bP; experiment: two-hybrid library CCNG1
T16 chain: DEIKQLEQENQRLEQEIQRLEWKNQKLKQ

O9-bP = target: T17, O9-bP; experiment: two-hybrid library CCNG1
T17 chain: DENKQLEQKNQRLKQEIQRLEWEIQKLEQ

4H1639-AA = target: T18, 4H1639-AA; experiment: two-hybrid library CCmax
T18 chain: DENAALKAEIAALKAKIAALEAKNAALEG

4H1738-AA = target: T19, 4H1738-AA; experiment: two-hybrid library CCmax; settings: mean of both orientations
T19 chain: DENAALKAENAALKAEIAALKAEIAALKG

4H2219-AA = target: T20, 4H2219-AA; experiment: two-hybrid library CCmax; settings: mean of both orientations
T20 chain: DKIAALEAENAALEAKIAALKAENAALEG

4H249-AA = target: T21, 4H249-AA; experiment: two-hybrid library CCmax; settings: mean of both orientations
T21 chain: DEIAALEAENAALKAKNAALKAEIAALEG

4H2504-AA = target: T22, 4H2504-AA; experiment: two-hybrid library CCmax; settings: mean of both orientations
T22 chain: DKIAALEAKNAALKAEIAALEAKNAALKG

4H2592-AA = target: T23, 4H2592-AA; experiment: two-hybrid library CCmax; settings: mean of both orientations
T23 chain: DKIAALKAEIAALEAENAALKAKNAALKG

4H2611-AA = target: T24, 4H2611-AA; experiment: two-hybrid library CCmax; settings: mean of both orientations
T24 chain: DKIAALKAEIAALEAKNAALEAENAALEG

4H2774-AA = target: T25, 4H2774-AA; experiment: two-hybrid library CCmax; settings: mean of both orientations
T25 chain: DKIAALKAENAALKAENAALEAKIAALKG

4H3001-AA = target: T26, 4H3001-AA; experiment: two-hybrid library CCmax; settings: mean of both orientations
T26 chain: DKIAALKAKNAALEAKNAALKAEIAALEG

4H3340-AA = target: T27, 4H3340-AA; experiment: two-hybrid library CCmax; settings: mean of both orientations
T27 chain: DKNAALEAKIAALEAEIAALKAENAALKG

4H3381-AA = target: T28, 4H3381-AA; experiment: two-hybrid library CCmax; settings: mean of both orientations
T28 chain: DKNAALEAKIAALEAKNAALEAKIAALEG

4H347-AA = target: T29, 4H347-AA; experiment: two-hybrid library CCmax; settings: mean of both orientations
T29 chain: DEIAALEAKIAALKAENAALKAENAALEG

4H3493-AA = target: T30, 4H3493-AA; experiment: two-hybrid library CCmax; settings: mean of both orientations
T30 chain: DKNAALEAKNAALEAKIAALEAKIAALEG

4H376-AA = target: T31, 4H376-AA; experiment: two-hybrid library CCmax; settings: mean of both orientations
T31 chain: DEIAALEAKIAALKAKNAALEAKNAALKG

4H406-AA = target: T32, 4H406-AA; experiment: two-hybrid library CCmax; settings: mean of both orientations
T32 chain: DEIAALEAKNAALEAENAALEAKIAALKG

4H688-AA = target: T33, 4H688-AA; experiment: two-hybrid library CCmax
T33 chain: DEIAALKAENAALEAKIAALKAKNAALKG

4H963-AA = target: T34, 4H963-AA; experiment: two-hybrid library CCmax; settings: mean of both orientations
T34 chain: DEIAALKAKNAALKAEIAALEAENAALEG

B1: Core_NNNN-es_EKKK (peptide)
chain: DENAALEAKNAALKAKNAALKAKNAALKG
- interaction score (Core_NNNN-es_KEEE): 1.14

B2: O1-bP (peptide)
chain: DKNKQLKQENQRLEQEIQRLEWEIQKLEQ
- interaction score (O1-bP): -0.355
- interaction score (O10-bP): -0.164
- interaction score (O11-bP): -0.513
- interaction score (O12-bP): -1.11
- interaction score (O13-bP): -0.754
- interaction score (O14-bP): -1.51
- interaction score (O15-bP): -1.88
- interaction score (O16-bP): -0.714
- interaction score (O2-bP): 1.06
- interaction score (O3-bP): -1.35
- interaction score (O4-bP): -1.05
- interaction score (O5-bP): -1.22
- interaction score (O6-bP): -0.442
- interaction score (O7-bP): -1.06
- interaction score (O8-bP): -1.95
- interaction score (O9-bP): 1.31

B3: O10-bP (peptide)
chain: DKNKQLKQENQRLEQKIQRLKWKIQKLKQ
- interaction score (O10-bP; mean of both orientations): -0.552
- interaction score (O11-bP): -1.97
- interaction score (O12-bP): -1.28
- interaction score (O13-bP): -0.892
- interaction score (O14-bP): -0.56
- interaction score (O15-bP): -0.788
- interaction score (O16-bP): -0.76
- interaction score (O2-bP): 0.624
- interaction score (O3-bP): -0.676
- interaction score (O4-bP): -0.826
- interaction score (O5-bP): -0.843
- interaction score (O6-bP): -1.19
- interaction score (O7-bP): -1.18
- interaction score (O8-bP): -1.81
- interaction score (O9-bP; mean of both orientations): 0.966

B4: 4H1639-AA (peptide)
chain: DENAALKAEIAALKAKIAALEAKNAALEG
- interaction score (4H1639-AA): 1.24
- interaction score (4H1738-AA): -1.64
- interaction score (4H2219-AA): -1.88
- interaction score (4H249-AA): -1.52
- interaction score (4H2504-AA): -1.77
- interaction score (4H2592-AA): -1.85
- interaction score (4H2611-AA): -1.52
- interaction score (4H2774-AA): -1.35
- interaction score (4H3001-AA): -2.12
- interaction score (4H3340-AA): -1.63
- interaction score (4H3381-AA): -1.7
- interaction score (4H347-AA): -1.41
- interaction score (4H3493-AA): -1.73
- interaction score (4H376-AA): -1.37
- interaction score (4H406-AA): -1.63
- interaction score (4H688-AA): -1.18
- interaction score (4H963-AA): -2.16
